Measured values from article PMC8376927 (2021).
Non-standard residues stand in square brackets, D forms with d. No end group written: not given here. *: point of attachment. 5FAM = O=C1OC2(c3ccc(O)cc3Oc3cc(O)ccc32)c2ccc(C(=O)*)cc21; pS = N[C@@H](COP(=O)(O)O)C(=O)O

Target: T1, Human 14-3-3γ WT (human, UniProt P61981 1-247)
T1 chain: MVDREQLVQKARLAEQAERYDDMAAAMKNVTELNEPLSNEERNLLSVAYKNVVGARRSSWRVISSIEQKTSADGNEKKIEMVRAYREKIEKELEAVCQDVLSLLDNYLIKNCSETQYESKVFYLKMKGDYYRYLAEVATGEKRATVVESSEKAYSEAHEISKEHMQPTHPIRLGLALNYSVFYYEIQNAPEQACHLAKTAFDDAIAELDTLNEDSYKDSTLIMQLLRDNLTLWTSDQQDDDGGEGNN
Assay: FP

- Kd: 48 µM
Binder: 5FAM-RRRWKL[pS]FSIV [FAM-aidDAPK-pS318 peptide (FAM-RRRWKLpSFSIV)]
